# Assay results: PMC10921019
# Key:
# [1] = molecular target: Parkin WT (pSer 65) (human) (UniProt O60260)
# Parkin [W403A] (human) = Parkin [W403A] (human) (UniProt O60260)
# Parkin [F146A] (human) = Parkin [F146A] (human) (UniProt O60260)
# [2] = molecular target: Human wild type Parkin 1-465 (human) (UniProt O60260)
substance,measurement,setting,value
p-Ubiquitin-His (pSer65-ubiquitin-6His) (natural protein),"Ub-K formation %, MALDI-TOF discharge assay of p-Parkin without or with p-Ub-His (100, 500, 2500 nM) (% Ub-K formation)",[1],78
same,"residual Ub % after 10 min, MALDI-TOF auto-ubiquitylation assay of p-Parkin without or with p-Ub-His (100, 500, 2500 nM) (% residual Ub)",[1],31.5
same,"EC50 of p-Ub-His for the activation of Parkin, MALDI-TOF auto-ubiquitylation assay (500 nM Parkin, 0.05-5 μM p-Ub-His, 30 min)",Parkin [W403A] (human),200 nM
same,"EC50 of p-Ub-His for the activation of Parkin, MALDI-TOF discharge assay (500 nM Parkin, 0.05-5 μM p-Ub-His, 30 min)",Parkin [W403A] (human),500 nM
same,"EC50 of p-Ub-His for the activation of Parkin, MALDI-TOF auto-ubiquitylation assay (500 nM Parkin, 0.05-5 μM p-Ub-His, 30 min)",Parkin [F146A] (human),400 nM
same,"EC50 of p-Ub-His for the activation of Parkin, MALDI-TOF discharge assay (500 nM Parkin, 0.05-5 μM p-Ub-His, 30 min)",Parkin [F146A] (human),600 nM
same,"EC50 of p-Ub-His for the activation of Parkin, MALDI-TOF auto-ubiquitylation assay (500 nM Parkin, 0.05-5 μM p-Ub-His, 30 min)",[2],2000 nM
same,"EC50 of p-Ub-His for the activation of Parkin, MALDI-TOF discharge assay (500 nM Parkin, 0.05-5 μM p-Ub-His, 30 min)",[2],1400 nM
